Test results taken from the DeepSol protein solubility set.

experiment: soluble on expression in E. coli; label from the status in PepcDB or PDB records

Question: For “MFSTGSGELCDSSAARAGGSMIHPILAKVTQNLTERSREARAAFIARSQAQEKAGKGRTSLSCGNLAHAVAASCSTEKKAILDFTRSNVAIVTSYNDMLSAHQPYQHYPDRIKMVLAEYGHTAQVAGGVPAMCDGVTQGQPGMDMSLFSRDLIAQATALSLSHNVFDATLLLGICDKIAPGQLMGALSYAHLPTAFMPAGLMATGISNEEKVDIRQKYAAGEVGKDALLNMECQAYHAPGTCTFYGTANTNQLVFEAMGLMLPGSAFVHPHSALRQALNDDATVKIASMTQGSAQYRPLYQVVTEKSLLNGIVALLASGGSTNHTIHMLAVARAAGILLTWQDISDLSDVVPLLAKVYPNGPADMNAFQQAGGVPALMKRLHESKLLHSDVTPVFGEFRDQLTLPELVDGELCWKACEGTRDAQVIAASGECFQTTGGTKMLNGNLGRAVIKVSAVKEEQRIIEAPAVVFQCQHQVEAAYQRGELNKDCIVVVTHNGPAANGMPELHKLMPILGNVQKAGFKVALVTDGRLSGASGKIPSAIHVSPEAVRGGAIGLVRDGDLLRLDCTTGTLENLTDMSHRQALALDTERDQQMWGRELFKVMRQAVSSAEQGASFIV”, which “soluble on expression in E. coli” value is on record?
Answer: not soluble

Question: With “MPQVETTSVFRADLLKEMESSTGTAPASTGAENLPAGSALLVVKRGPNAGARFLLDQPTTTAGRHPESDIFLDDVTVSRRHAEFRINEGEFEVVDVGSLNGTYVNREPRNAQVMQTGDEIQIGKFRLVFLAGPAELEHHHHHH” as the sequence, how does the “soluble on expression in E. coli” value read?
Answer: soluble

Question: With “MSLKILLLEDEVMLNESICEYLDSEGHHVESFFNGLAALEAIKENSYDLLVLDINVPGIDGLSFLEKIHELKIHVSVIYISALVDIEDISRAYTLGCHDYLKKPFHLKELSLRVDRIKLSSVVPRVHLRLCKNYSYDQENSTLLFNQEVQILTKRQAQIIDLLSRNRGRIVDFEQFQTYVWSEQIVDNATIRAEINRLKKNLKEDFVINVRGMGYMIDKEGHHHHHH” as the sequence, how does the “soluble on expression in E. coli” value read?
Answer: not soluble

Question: For “MLLKTKHFGEINIDESKIIEFKDGIPGFENLKRYVVLYDGDKNSPFRWLQNVDDGELAFAVVNPFMVVKDYDFEIPDEAVESLGIESILDVMVLSIVVVPEDISKMTMNLKAPVIINTKNNKGMQVVLDTDRYSVRHYIIEELRRQEVNVGAGSDEKEK”, which “soluble on expression in E. coli” value is on record?
Answer: soluble

Question: With “MYKAIIMPVDVFEMELSDKAVRHAEFLAQDDGVIHLLHVLPGSASLSLHRFAADVRRFEEHLQHEAEERLQTMVSHFTIDPSRIKQHVRFGSVRDEVNELAEELGADVVVIGSRNPSISTHLLGSNASSVIRHANLPVLVVR” as the sequence, how does the “soluble on expression in E. coli” value read?
Answer: not soluble

Question: For “MCGITGWVDWKEDLSNQHVILKKMANRIQHRGPDAEGFWFSPRAAFAHRRLIVIDPEGGAQPKTFRAGDYTYALTYNGEIYNFRELREQLQKCGHTFETHSDTEVLLHAYLEWKEDCVQHLNGIFAFALWDDQKQRLFLARDHLGVKPLFYTERNDSIIFGSEIKALLAHPSVPAEIDADGINEIFGLGLFRTPGCGVFKHIEEVRAGHSITFTRDKKVVTKYWNLESKVHTDSIEDTSSHILSILQDTVKRQLIADVPLVCMLSGGLDSSGITALAGKEFAAENKTLHTYSVDFVNSAKDFELTFARTGLDAPWVKRVSEHVGTSHHDIIVNAEELANHLFVPLRAKDLPSAGEMETSLYLLFCEMKKDATVALSGESADEVFGGYPWFHQEELLYVDKFPWLTNWKNTSPLLLHEISNQCNLENYIDTRFQEAILEVPTLEGESKKSAKQRQMFYLFLTRFLPFLLDRKDRMSMAVGFEVRVPFCDYRLVEYLWNVPFNIKSIDNIEKGILRRALKPALPDDVRNRRKSAYPTSQDPQYLQTIRHLSLDMCSNKNNPIFSLINHSTLLAIADGSNKEINNFEARSAMEYMLQVNEWLKTYHIHIA”, which “soluble on expression in E. coli” value is on record?
Answer: not soluble

Question: With “SLPKFGIEKRYNAAKSDIVSYLEKNNRNTSLGARFDMWENALIAIKEAPIFGHGSDGYDEFRHKQVKSKQMAKTTLNFGSLHNQYLESWVKRG” as the sequence, how does the “soluble on expression in E. coli” value read?
Answer: not soluble

Question: With “MNNHFKCIGIVGHPRHPTALTTHEMLYRWLCTKGYEVIVEQQIAHELQLKNVKTGTLAEIGQLADLAVVVGGDGNMLGAARTLARYDIKVIGINRGNLGFLTDLDPDNAQQQLADVLEGHYISEKRFLLEAQVCQQDCQKRISTAINEVVLHPGKVAHMIEFEVYIDEIFAFSQRSDGLIISTPTGSTAYSLSAGGPILTPSLDAITLVPMFPHTLSARPLVINSSSTIRLRFSHRRNDLEISCDSQIALPIQEGEDVLIRRCDYHLNLIHPKDYSYFNTLSTKLGWSKKLFMAGDPLEHHHHHH” as the sequence, how does the “soluble on expression in E. coli” value read?
Answer: soluble

Question: For “MNFQEENENIKNDIEINLLHSAEADSVEAMMDLAVYGLAAMVAKHNKTRGEQLVLQAIAGHMRKLLAALPETESLVQTGKVYRRLEDLIFKTYLPEQ”, which “soluble on expression in E. coli” value is on record?
Answer: not soluble

Question: Which “soluble on expression in E. coli” value does the source give for “MKDRELLAKSITTKDAVSDGRESPSLLSDKLSRLPWSTLYASVFCAGVLLLPFSGQAVEPPVAAKASENKNQLKTLQQDIAEKEKSVQQQKKQRSSLLDQLKQQENTISQTSRSLRETQAALAELSKDIASLTTSIEKLQNQQSQQQSILSKQLAAAFKQGKHSSLQLILSGEESQRSERILAYFSYLNEARQKAIEELKQTRTTLSAEKKMLEQKQNQHKALLDEQKAQQQKLEQARIARQKTLTSLEASLEKDQQSLAELKLNESRLRDQIAKAEREAKARAEREAKEAARVREQVKVKEQQAKKTGSSYKPSESERSLMARTGGLGRPGGQALWPVRGNVSHRFGEPLQGELRWKGMVITAPEGSEVKAIADGRVLLADWLQGYGLVVVIEHGKGDMSLYGYNQSALVNVGAQVKAGQPIALVGTSGGQGEPSLYFEIRRQGQAVNPQPWLGR” here?
Answer: not soluble

Question: For “DCSPLSLLFGHSDAVVQALYSNNPVLHCLNSALAQTAKALAGTRRDLRVLEVGAGTGATTRHLLPMLEEHLSEYRFTDVSNLFLTQAQEHFAAWPQLTCSMLDVNQPVDFSQHPAQGYDLVVAVNVMHDAAHVTRSLKRLHRLLRSGGHLLLLEATERDSALQLASIGFIEGLSNFEDERSEDDKAMLDLPRWRTAVQASGFSWVMNWPQQADDSM”, which “soluble on expression in E. coli” value is on record?
Answer: not soluble

Question: Which “soluble on expression in E. coli” value does the source give for “MGSDKIHHHHHHMNTDDILFSYGEEDIPLKALSFPIFETTNFYFDSFDEMSKALRNGDYEFVYKRGSNPTTRLVEKKLAALEECEDARLVASGMSAISLSILHFLSSGDHVVCVDEAYSWAKKFFNYLSKKFDIEVSYVPPDAERIVEAITKKTKLIYLESPTSMRMKVIDIRKVTEAAGELKIKTVIDNTWASPIFQKPKLLGVDVVVHSATKYISGHGDVMAGVIAGDVEDMKNIFVDEYKNIGPVLSPIEAWLILRGLRTLELRMKKHYENALVVSDFLMDHPKVLEVNYPMNPRSPQYELASSQMSGGSGLMSFRLKTDSAEKVKEFVESLRVFRMAVSWGSHENLVVPRVAYGDCPKKDVNLIRIHVGLGDPEKLVEDLDQALKKI” here?
Answer: not soluble

Question: With “ANGLFYSLRGNFSFARNKIIENDEPKPKYEYQDARGRRIDQTFGLVALGFFKDQDDIKNSPKQTFQSTVRPGDIKYKDINGDGVVDEYDKVAIGDPRTPEIMFGFGGTVAYKNFDVSLFFTGAAKTSFFLEGATVYPFLNGEGTWNVLREVYDNRWTSETAATAKYPIVLNANSYNNYQTSTMYMRNGSYLRLKSAEIGYTFKGRLIDKMFMDNIRLFCNGQNLLTLDYIKIVDPESNNGVGNYPMQRTINFGFQINFK” as the sequence, how does the “soluble on expression in E. coli” value read?
Answer: not soluble

Question: Which “soluble on expression in E. coli” value does the source give for “MRRGMTGLKTLAQQIALIWKNDPQQFESQAVAVMDAVKNRMPGRAKINVDVFSKLELSLRTSFDLQDGGFSGSPKFFNTPALNYLLERFYETGNEEILNFIGLTLKTISIRGIHDLVNGGFFRYSTDTMWIVPHFEKMLYTQTQLMKLFSKMFMLTRDNVYRDMIYDIKRFMDENLYWPGHGYYSGMDADVDGNEGGYYKWSFQDLKVALGQDFEAFRAIFDISEGGNYMDELYGQTGDNLIYFTGSFDEYRRSIEENGSTDMLSRSIEKLREAEKKRKKPSVDKKILTDLNGLAISSLSWAYRATGDKEFLDSAVSVSEFIIKNMIGDYLLHSFFEGSASVKSSLFDYAFLIRGLIDLYTITFDQKYLEEAKKLADEAIKFLFDGKFKLSEEIDDPQIADSEVESPYATIVADLDDLSLLTEDLQYHQIADQALTSVFDAVSRFPSAFPSLEHHHHHH” here?
Answer: not soluble

Question: Which “soluble on expression in E. coli” value does the source give for “MRKYTFKTQRPKIVVIGGGTGLPVVLNGLRKQAVDITAVVTVADDGGSSGIIRNYVNVVPPGDIRNVMVALSSWPDLYKDIFQYRFQGDDQFFAGHAIGNLIIAALTEMKSGVFDAVQELSNMMQVDGHVYPAANEALTLHGKFSDGTELVGEAEITAAHKSLERVWVTDKNGKEPQAVQPVIDAIMAADQIVLGPGSLFTSILPNLTIGNIGRAVCESDAEVVYICNIMTQKGETDNFSDADHVRVLNRHLGQNFINTVLVNTEKVPEDYMDFHKFNEVSKQVSHDFRGLREQNCRVISSNFLKLRDNGAFHDGDQVVAELMNLVGHSDVFRLEHHHHHH” here?
Answer: soluble

Question: For “MQFSYVNPTMIHFGQGQIASIRRDIPKDHKVLVLYGGGSIKRNGVYDQVVEALSEHQWVEFSGVEPNPTKETLDKAVHIVKNQHIDFILAVGGGSVIDGSKYVAAAAFYEGDGWDILTGQHTVKQATPIGAILTLPATGSESNTGAVITKAETQDKLAFLSPAVQPRFAVLDPDVMKSLPERQLVNGLVDAWVHVCEQYLTLPTQAMVQEGYAEVLLRNLLALGADFVNRDNDAWRANLMWTANQALNGLIGTGVPQDWATHMIGHELTALWHVDHARSLAIVQPWLLRNQLKHKKAKLEQMGKNVFGLPQSDDLAEKTIAAIEAFYHQLNVATQFGEHGMAKEAAVDAVLQQLTAHGMHKLGEQGTIDLQESRKILENALY”, which “soluble on expression in E. coli” value is on record?
Answer: not soluble

Question: Which “soluble on expression in E. coli” value does the source give for “MKKDLSALKEARFNAILDSATILLVENPTASMNEIAEYAGIGIATLHRYVESREKLMLFLGHRAIQLVSDTVNQIPLDEERSENYIPELIEALIPLGDKIYFLGHDASVFNNKELGEAEEKLREPLRRVIELLQQRGYFQQTVSSEWILNTLYALLFHTWEQVHEGNVAKKSAAELVLNTFYYGFKAKDELRGK” here?
Answer: not soluble

Question: Which “soluble on expression in E. coli” value does the source give for “MATPDLTIRGGGIFGLAVAWAAVRRGAKVRLIESARIGAGSSGGVVGALSPHVPEQWNEKKAFQFESLAMGEAWWAAVADASGLPTGYDRLGRFQPLADARAVDHARARAEEARTLWQGRFSWEVVPAGGDFMPESPTGLVIHDTLTARLNPRLAVPALVQAIRAQGGEILIGEGEEAGPVVWATGVAGLEALSQDLGKPVGNGVKGQAMVVALDARDRPQVFGPGLLIVPHADGTTAVGSTAEKDWTAPDTTDAQLDEVHARAVALCPWLEGAPVLTRWAGLRPRARSLAPMLGEWPGRPGQYVANGGFKIGFGMAPKVGEVMAALVLEGRDEIPESFRVEASLKKKGKAEELEHHHHHH” here?
Answer: not soluble

Question: With “MGSDKIHHHHHHMRIPEEIIKLVDTPEFQRLRGVKQLGLANLVYPGANHTRFEHSLGTWYLARKLSLELQLPREDSLLIQLAALLHDIGHGPFSHTFERIYRDRLDFHDHMEVSRRIVEGKIQICEDGGELPDIISSLGYEPREVGELIVGKHKKRYLRMIIHGDIDVDQLDYLTRDAHYTGVAHGIIDLERLLTVMRVFNGELVIDEKGIEAVEGMLVARSLMYSRVYFHRTVKIAEGMLIRAVEFALDEGELEDFWKMTDDRLVIELEDLGDFPGDIIRRIRRRKLFKAAVIIGPEDLTAEEKKSLTTLYRSQKKRKKIESELAEIVGAREGEVMVELSIPELILSEPRLKQVEVNVLLSGGKVEPIGKVTPLASAIKRRQTPRWILLVATLPEYMEGVKRVWREVILE” as the sequence, how does the “soluble on expression in E. coli” value read?
Answer: not soluble

Question: Which “soluble on expression in E. coli” value does the source give for “ITDHNTLSGVSKMVEACKINKRFLNNKCPQILAGIEISCSDKHHVVVILNNKDMDMMQKAEDWLTNYIISDDGTYLPSLLVIEAFVEIGAIAYIAHFNTSDLFKKPKFLSGLYIDKLFSTKKMEIIGLSNMDSKLAIEEKLSNYTKRKFHFILDEDSHTLEELCTKPFWIK” here?
Answer: not soluble

Question: With “MSETAKRLLRRVEAIDAAAAENRARAEQYRQMTEKLAAVTGTATSPDGVVTVVAGPDGSVKEVTFSEQVRKADPAALSASVVHTIAQARVNATREQAEIMRRNLDDTHLLDQVLAEDARLFGDKQPEDPGPPPPAAVPTGGTPAGRPRTQPARQAYNDDDSFEDFQVLRRS” as the sequence, how does the “soluble on expression in E. coli” value read?
Answer: not soluble
